From publication PMC9672333

Biological target: Omicron BA.1 spike RBD (UniProt P0DTC2) (SARS-CoV-2) (UniProt P0DTC2)
Assay: microfluidic diffusional sizing (MDS)

| Substance | fold reduction of binding affinity relative to wild type RBD |
| --- | --- |
| Casirivimab (antibody) | > 100 fold |
| Cilgavimab Biosimilar (antibody) | > 100 fold |
| Tixagevimab Biosimilar (antibody) | > 100 fold |
